Article PMC7261175, “A splice site-sensing conformational switch in U2AF2 is modulated by U2AF1 and its recurrent myelodysplasia-associated mutation” (Nucleic Acids Research, 2019)

Experiments:
[1] = biological target: T1, His6SumoMBP-U2AF1;U2AF2 Cy3/Cy5 (human;human, UniProt Q01081;P26368-2 1-188;85-342, C67S|A181C;C305A;Q324C); experiment: smFRET; RNA tethered; open 0.4 FRET; Anisotropy: 150 mM NaCl, 25 mM HEPES pH 6.8, 0.5 mM TCEP, 3% glycerol, 20 uM ZnCl2, 0.2 U/ul SUPERase-In; smFRET: 25 mM HEPES pH 7.0, 150 mM KCl, 0.01% octaethylene glycol monododecyl ether, 0.2 mM TCEP, 6 mM BME, 1.5 mM Trolox, oxygen scavenger, room temperature, excess U2AF1 (1000 nM) with heterodimer; settings: protein: recombinant;recombinant; tags: N-terminal His6-SUMO-MBP with AAA linker; C-terminal extra Ala;GST cleaved; Cy3/Cy5 on C181 and C324; copies: 1;1; label: biotin on annealed DNA
[2] = biological target: T2, His6SumoMBP-U2AF1 S34F;U2AF2 Cy3/Cy5 (human;human, UniProt Q01081;P26368-2 1-188;85-342, S34F;C67S|A181C;C305A;Q324C); experiment: smFRET; RNA tethered; 25% closed; Anisotropy: 150 mM NaCl, 25 mM HEPES pH 6.8, 0.5 mM TCEP, 3% glycerol, 20 uM ZnCl2, 0.2 U/ul SUPERase-In; smFRET: 25 mM HEPES pH 7.0, 150 mM KCl, 0.01% octaethylene glycol monododecyl ether, 0.2 mM TCEP, 6 mM BME, 1.5 mM Trolox, oxygen scavenger, room temperature, excess U2AF1 (1000 nM) with heterodimer; settings: protein: recombinant;recombinant; tags: N-terminal His6-SUMO-MBP with AAA linker; C-terminal extra Ala;GST cleaved; Cy3/Cy5 on C181 and C324; copies: 1;1; label: biotin on annealed DNA
[3] = biological target: His6SumoMBP-U2AF1;U2AF2 Cy3/Cy5 D215R/G319R (human;human, UniProt Q01081;P26368-2 1-188;85-342, C67S|A181C;D215R;C305A;G319R;Q324C); experiment: smFRET; RNA tethered; about half closed; Anisotropy: 150 mM NaCl, 25 mM HEPES pH 6.8, 0.5 mM TCEP, 3% glycerol, 20 uM ZnCl2, 0.2 U/ul SUPERase-In; smFRET: 25 mM HEPES pH 7.0, 150 mM KCl, 0.01% octaethylene glycol monododecyl ether, 0.2 mM TCEP, 6 mM BME, 1.5 mM Trolox, oxygen scavenger, room temperature, excess U2AF1 (1000 nM) with heterodimer; settings: protein: recombinant;recombinant; tags: N-terminal His6-SUMO-MBP with AAA linker; C-terminal extra Ala;GST cleaved; Cy3/Cy5 on C181 and C324; copies: 1;1; label: biotin on annealed DNA
U2AF1 UHM (dZn);U2AF2 = U2AF1 UHM (dZn);U2AF2 (human;human, UniProt Q01081;P26368-2 43-146;85-471, C67S|); experiment: fluorescence anisotropy; Kd shown in figure only; Anisotropy: 150 mM NaCl, 25 mM HEPES pH 6.8, 0.5 mM TCEP, 3% glycerol, 20 uM ZnCl2, 0.2 U/ul SUPERase-In; smFRET: 25 mM HEPES pH 7.0, 150 mM KCl, 0.01% octaethylene glycol monododecyl ether, 0.2 mM TCEP, 6 mM BME, 1.5 mM Trolox, oxygen scavenger, room temperature, excess U2AF1 (1000 nM) with heterodimer; settings: protein: recombinant;recombinant; tags: GST cleaved by TEV;GST cleaved by PreScission; copies: 1;1; label: 5'-fluorescein
His6SumoMBP-U2AF1;U2AF2 = His6SumoMBP-U2AF1;U2AF2 (human;human, UniProt Q01081;P26368-2 1-188;85-471, C67S|); experiment: fluorescence anisotropy; Anisotropy: 150 mM NaCl, 25 mM HEPES pH 6.8, 0.5 mM TCEP, 3% glycerol, 20 uM ZnCl2, 0.2 U/ul SUPERase-In; smFRET: 25 mM HEPES pH 7.0, 150 mM KCl, 0.01% octaethylene glycol monododecyl ether, 0.2 mM TCEP, 6 mM BME, 1.5 mM Trolox, oxygen scavenger, room temperature, excess U2AF1 (1000 nM) with heterodimer; settings: protein: recombinant;recombinant; tags: N-terminal His6-SUMO-MBP with AAA linker; C-terminal extra Ala;GST cleaved by PreScission; copies: 1;1; label: 5'-fluorescein
U2AF1 untagged;U2AF2 = U2AF1 untagged;U2AF2 (human;human, UniProt Q01081;P26368-2 1-193;85-471, |); experiment: fluorescence anisotropy; Kd in figure only; tag has no significant influence; Anisotropy: 150 mM NaCl, 25 mM HEPES pH 6.8, 0.5 mM TCEP, 3% glycerol, 20 uM ZnCl2, 0.2 U/ul SUPERase-In; smFRET: 25 mM HEPES pH 7.0, 150 mM KCl, 0.01% octaethylene glycol monododecyl ether, 0.2 mM TCEP, 6 mM BME, 1.5 mM Trolox, oxygen scavenger, room temperature, excess U2AF1 (1000 nM) with heterodimer; settings: protein: recombinant;recombinant; tags: MBP cleaved by TEV; GSGGGGS linker remains;GST cleaved by PreScission; copies: 1;1; label: 5'-fluorescein
[4] = biological target: T2, His6SumoMBP-U2AF1 S34F;U2AF2 Cy3/Cy5; experiment: smFRET; RNA tethered; slightly more open than DEK(-3U); Anisotropy: 150 mM NaCl, 25 mM HEPES pH 6.8, 0.5 mM TCEP, 3% glycerol, 20 uM ZnCl2, 0.2 U/ul SUPERase-In; smFRET: 25 mM HEPES pH 7.0, 150 mM KCl, 0.01% octaethylene glycol monododecyl ether, 0.2 mM TCEP, 6 mM BME, 1.5 mM Trolox, oxygen scavenger, room temperature, excess U2AF1 (1000 nM) with heterodimer; settings: protein: recombinant;recombinant; tags: N-terminal His6-SUMO-MBP with AAA linker; C-terminal extra Ala;GST cleaved; Cy3/Cy5 on C181 and C324; copies: 1;1; label: biotin on annealed DNA
[5] = biological target: U2AF2 Cy3/Cy5 isolated subunit (human, UniProt P26368-2 113-342, A181C;C305A;Q324C); experiment: smFRET; RNA tethered; preferentially open; Anisotropy: 150 mM NaCl, 25 mM HEPES pH 6.8, 0.5 mM TCEP, 3% glycerol, 20 uM ZnCl2, 0.2 U/ul SUPERase-In; smFRET: 25 mM HEPES pH 7.0, 150 mM KCl, 0.01% octaethylene glycol monododecyl ether, 0.2 mM TCEP, 6 mM BME, 1.5 mM Trolox, oxygen scavenger, room temperature, excess U2AF1 (1000 nM) with heterodimer; settings: protein: recombinant, tags: His6 and T7 tags, label: biotin on annealed DNA
[6] = biological target: T1, His6SumoMBP-U2AF1;U2AF2 Cy3/Cy5; experiment: smFRET; RNA tethered; more open than DEK(-3U); Anisotropy: 150 mM NaCl, 25 mM HEPES pH 6.8, 0.5 mM TCEP, 3% glycerol, 20 uM ZnCl2, 0.2 U/ul SUPERase-In; smFRET: 25 mM HEPES pH 7.0, 150 mM KCl, 0.01% octaethylene glycol monododecyl ether, 0.2 mM TCEP, 6 mM BME, 1.5 mM Trolox, oxygen scavenger, room temperature, excess U2AF1 (1000 nM) with heterodimer; settings: protein: recombinant;recombinant; tags: N-terminal His6-SUMO-MBP with AAA linker; C-terminal extra Ala;GST cleaved; Cy3/Cy5 on C181 and C324; copies: 1;1; label: biotin on annealed DNA

T1 sequence (Q01081 1-188 C67S, chain 1 of 2): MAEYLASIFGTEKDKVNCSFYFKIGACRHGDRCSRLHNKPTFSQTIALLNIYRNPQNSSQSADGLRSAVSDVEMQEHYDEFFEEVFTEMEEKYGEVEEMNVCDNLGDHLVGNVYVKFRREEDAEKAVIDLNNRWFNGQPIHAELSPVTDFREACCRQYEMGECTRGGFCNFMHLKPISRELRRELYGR
T1 sequence (P26368 85-342 A181C/C305A/Q324C, chain 2 of 2): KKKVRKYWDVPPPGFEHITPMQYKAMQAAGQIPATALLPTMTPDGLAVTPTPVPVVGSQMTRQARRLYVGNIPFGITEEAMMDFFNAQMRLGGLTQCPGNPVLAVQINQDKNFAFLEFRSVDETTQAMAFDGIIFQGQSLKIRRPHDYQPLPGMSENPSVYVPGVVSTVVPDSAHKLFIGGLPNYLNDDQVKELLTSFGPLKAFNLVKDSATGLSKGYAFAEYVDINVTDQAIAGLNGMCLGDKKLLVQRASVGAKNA
T2 sequence (Q01081 1-188 S34F/C67S, chain 1 of 2): as the sequence (Q01081 1-188 C67S, chain 1 of 2) above, with S34F counted along it
T2 sequence (P26368 85-342 A181C/C305A/Q324C, chain 2 of 2): as the sequence (P26368 85-342 A181C/C305A/Q324C, chain 2 of 2) above
Chain of U2AF2 Cy3/Cy5 isolated subunit (P26368 113-342 A181C/C305A/Q324C): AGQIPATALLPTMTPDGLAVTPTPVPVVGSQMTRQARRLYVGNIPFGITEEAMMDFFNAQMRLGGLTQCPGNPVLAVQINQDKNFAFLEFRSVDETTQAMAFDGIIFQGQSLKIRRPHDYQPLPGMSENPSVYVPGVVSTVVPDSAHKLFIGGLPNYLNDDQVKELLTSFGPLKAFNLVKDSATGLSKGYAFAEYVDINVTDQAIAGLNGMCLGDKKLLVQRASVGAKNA
Chain of His6SumoMBP-U2AF1;U2AF2 (Q01081 1-188 C67S, chain 1 of 2): as the sequence (Q01081 1-188 C67S, chain 1 of 2) above
Chain of His6SumoMBP-U2AF1;U2AF2 (P26368 other isoform, or with tags, fused parts or gaps C67S|, chain 2 of 2): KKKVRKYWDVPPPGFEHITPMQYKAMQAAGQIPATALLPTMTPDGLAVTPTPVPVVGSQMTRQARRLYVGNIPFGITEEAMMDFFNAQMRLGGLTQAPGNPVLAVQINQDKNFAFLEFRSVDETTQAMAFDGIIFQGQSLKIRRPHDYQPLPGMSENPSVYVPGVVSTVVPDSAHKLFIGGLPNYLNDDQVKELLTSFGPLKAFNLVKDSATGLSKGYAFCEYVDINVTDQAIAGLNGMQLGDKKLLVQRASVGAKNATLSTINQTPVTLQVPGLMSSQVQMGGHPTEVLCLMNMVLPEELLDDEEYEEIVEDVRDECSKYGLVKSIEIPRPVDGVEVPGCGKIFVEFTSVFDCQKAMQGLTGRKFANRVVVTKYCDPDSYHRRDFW
Chain of His6SumoMBP-U2AF1;U2AF2 Cy3/Cy5 D215R/G319R (Q01081 1-188 C67S, chain 1 of 2): as the sequence (Q01081 1-188 C67S, chain 1 of 2) above
Chain of His6SumoMBP-U2AF1;U2AF2 Cy3/Cy5 D215R/G319R (P26368 85-342 A181C/D215R/C305A/G319R/Q324C, chain 2 of 2): as the sequence (P26368 85-342 A181C/C305A/Q324C, chain 2 of 2) above, with D131R, G235R counted along it
Chain of U2AF1 UHM (dZn);U2AF2 (Q01081 43-146 C67S, chain 1 of 2): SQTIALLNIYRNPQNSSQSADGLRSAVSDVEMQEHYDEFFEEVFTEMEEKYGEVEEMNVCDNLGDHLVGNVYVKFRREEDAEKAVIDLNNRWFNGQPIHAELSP
Chain of U2AF1 UHM (dZn);U2AF2 (P26368 other isoform, or with tags, fused parts or gaps C67S|, chain 2 of 2): as the sequence (P26368 other isoform, or with tags, fused parts or gaps C67S|, chain 2 of 2) above
Chain of U2AF1 untagged;U2AF2 (Q01081 1-193, chain 1 of 2): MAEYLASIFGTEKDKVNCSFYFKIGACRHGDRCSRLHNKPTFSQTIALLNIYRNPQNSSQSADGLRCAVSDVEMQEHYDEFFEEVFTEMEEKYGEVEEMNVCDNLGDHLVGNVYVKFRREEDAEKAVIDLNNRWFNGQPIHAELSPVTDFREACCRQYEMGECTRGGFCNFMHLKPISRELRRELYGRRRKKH
Chain of U2AF1 untagged;U2AF2 (P26368 other isoform, or with tags, fused parts or gaps |, chain 2 of 2): as the sequence (P26368 other isoform, or with tags, fused parts or gaps C67S|, chain 2 of 2) above

B1: AdML tethered (ssRNA)
RNA: UCCCUUUUUUUUCCACAGCUCGCGGU
modifications: 3' PEG18-DNA conjugate
- binding result [1]: binds
- binding result [2]: binds
- binding result [3]: binds

B2: Fl-AdML (ssRNA)
RNA: CUGUCCCUUUUUUUUCACAGCUCGCGGUUGAG
- fold weaker binding affinity (Kd ratio) (U2AF1 UHM (dZn);U2AF2): 35 fold weaker than heterodimer with zinc knuckles
- Kd (His6SumoMBP-U2AF1;U2AF2): 120 ± 15 nM
- binding result (U2AF1 untagged;U2AF2): binds

B3: DEK(-3C) (ssRNA)
RNA: UACUAAAUUAAUUUCCAGAAAAGAGU
modifications: 3' PEG18-DNA conjugate
- binding result [4]: binds
- binding result [5]: binds
- binding result [6]: binds
